This passage reports MFI results from patent US20180222958A1 (ONCOMED PHARMACEUTICALS, published 2018).

Assay [1] deals with T1, human LTβR ecd, CD4TM and GFP (human, UniProt P36941 31-227).
T1 construct: extracellular domain; also called hLTβR; hLThR-GFP; not shown: CD4 transmembrane domain and GFP fused after the extracellular domain
The assay is described as follows: flow cytometry on HEK 293T cells transiently transfected with human LTβR ecd-CD4TM-GFP (row 'hLTBR GFP'); '0.5 ug/ml' printed at the upper left of the figure; APC-conjugated Fc secondary. How it is done:
(§1) To test the binding of the different c-terminal human lymphotoxin heterotrimer constructs to human and mouse LTβR, HEK 293T cells were transiently transfected with cDNA expression vectors encoding cDNA for human or mouse LTβR ecd, CD4TM and GFP. Cells were then incubated with the various human lymphotoxin constructs 363F2, 363F3, or 363F4, washed and stained with APC-conjugated Fc secondary antibody. Mouse (deglycosylated) IgG1 Fc-mouse lymphotoxin-αββ heterotrimer fusion protein 363F1 was also tested. Binding of the lymphotoxin constructs was then assessed by flow cytometry using a Canto II FACS instrument (BD Biosciences) and analyzed using FlowJo software.

In assay [2] the target is T2, membrane-bound extracellular domain of mouse LTβR (mLTβR-CD4TM-GFP) (mouse, UniProt P50284 31-223).
T2 construct: extracellular domain; also called mouse LTβR ecd, CD4TM and GFP; mLThR-GFP; not shown: CD4 transmembrane domain and GFP fused after the extracellular domain
Put plainly: flow cytometry on HEK 293T cells transiently transfected with mouse LTβR ecd-CD4TM-GFP (row 'mLTBR GFP'); '0.5 ug/ml' printed at the upper left of the figure; APC-conjugated Fc secondary. How it is done:
as §1
On the technique in general: Flow cytometry measures light scatter and fluorescence of single cells or particles in a stream.

T2 sequence (P50284 31-223): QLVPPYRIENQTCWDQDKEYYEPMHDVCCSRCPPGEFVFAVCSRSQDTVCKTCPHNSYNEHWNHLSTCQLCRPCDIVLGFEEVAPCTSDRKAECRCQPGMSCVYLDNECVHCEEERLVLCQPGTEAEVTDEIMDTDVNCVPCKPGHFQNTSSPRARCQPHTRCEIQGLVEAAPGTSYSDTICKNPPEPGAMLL
T1 sequence (P36941 31-227): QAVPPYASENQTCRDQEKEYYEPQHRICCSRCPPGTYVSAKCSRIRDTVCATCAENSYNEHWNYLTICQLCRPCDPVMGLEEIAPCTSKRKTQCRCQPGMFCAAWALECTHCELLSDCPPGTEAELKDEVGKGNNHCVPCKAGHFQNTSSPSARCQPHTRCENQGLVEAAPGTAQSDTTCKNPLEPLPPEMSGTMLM

B1: 363F1 mFc-mLTαββ (Fc fusion)
chain: GCKPCICTVPEVSSVFIFPPKPKDVLTITLTPKVTCVVVDISKDDPEVQFSWFVDDVEVHTAQTQPREEQFASTFRSVSELPIMHQDWLNGKEFKCRVNSAAFPAPIEKTISKTKGRPKAPQVYTIPPPKEQMAKDKVSLTCMITDFFPEDITVEWQWNGQPAENYKNTQPIMDTDGSYFVYSKLNVQKSNWEAGNTFTCSVLHEGLHNHHTEKSLSHSPGKKPAAHLVGYPSKQNSLLWRASTDRAFLRHGFSLSNNSLLIPTSGLYFVYSQVVFSGESCSPRAIPTPIYLAHEVQLFSSQYPFHVPLLSAQKSVYPGLQGPWVRSMYQGAVFLLSKGDQLSTHTDGISHLHFSPSSVFFGAFALLNPELPAAHLIGAWMSGQGLSWEASQEEAFLRSGAQFSPTHGLALPQDGVYYLYCHVGYRGRTPPAGRSRARSLTLRSALYRAGGAYGRGSPELLLEGAETVTPVVDPIGYGSLWYTSVGFGGLAQLRSGERVYVNISHPDMVDYRRGKTFFGAVMVGLNPELPAAHLIGAWMSGQGLSWEASQEEAFLRSGAQFSPTHGLALPQDGVYYLYCHVGYRGRTPPAGRSRARSLTLRSALYRAGGAYGRGSPELLLEGAETVTPVVDPIGYGSLWYTSVGFGGLAQLRSGERVYVNISHPDMVDYRRGKTFFGAVMVG
notes: also called mouse LTαββ; mouse (deglycosylated) IgG1 Fc-mouse lymphotoxin-αββ heterotrimer fusion protein
Consider B1, for which the MFI was 2260 in assay [1] and 4740 in assay [2].
